The target in one assay is T1, human B7-H4 on cells (human, UniProt Q7Z7D3 25-282).
T1 construct: Full-length human B7-H4 on transfected HEK293T cells (also aAPCs) or endogenous on SK-BR-3 breast cancer cells; also called SK-BR-3 (endogenous human B7-H4)
T1 sequence: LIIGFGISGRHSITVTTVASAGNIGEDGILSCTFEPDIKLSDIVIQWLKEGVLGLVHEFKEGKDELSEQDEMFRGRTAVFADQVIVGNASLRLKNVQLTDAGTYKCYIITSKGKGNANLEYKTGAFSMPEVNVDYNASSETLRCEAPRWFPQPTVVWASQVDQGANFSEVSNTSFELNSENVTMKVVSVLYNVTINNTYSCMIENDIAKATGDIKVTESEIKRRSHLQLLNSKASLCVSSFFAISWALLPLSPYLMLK
Put plainly: flow cytometry titration on SK-BR-3 cells (endogenous human B7-H4), GEO MFI against antibody concentration.

Another assay has as its target T2, rat B7-H4 on cells (rat, UniProt Q501W4 25-257).
T2 construct: Full-length, on transfected HEK293T cells
T2 sequence: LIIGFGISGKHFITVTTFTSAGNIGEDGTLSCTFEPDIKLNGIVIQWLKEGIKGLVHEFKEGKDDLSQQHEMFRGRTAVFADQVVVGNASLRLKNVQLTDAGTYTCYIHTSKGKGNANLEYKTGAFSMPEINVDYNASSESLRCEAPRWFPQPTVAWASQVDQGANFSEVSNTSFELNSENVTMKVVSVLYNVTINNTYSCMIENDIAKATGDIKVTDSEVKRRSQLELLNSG
As to the kind of experiment: flow cytometry titration on HEK293T cells transfected with rat B7-H4 (293-ratB7-H4), GEO MFI against antibody concentration.

A further assay has as its target T3, mouse B7-H4 on cells (mouse, UniProt Q7TSP5 25-257).
T3 construct: Full-length, on transfected HEK293T cells
T3 sequence: T2 sequence with H109R, E228Q
As to the kind of experiment: flow cytometry titration on HEK293T cells transfected with mouse B7-H4 (293-mouseB7-H4), GEO MFI against antibody concentration.

In assay [1] the target is T4, cynomolgus monkey B7-H4 on cells (cynomolgus monkey, UniProt Q7Z7D3 25-282 (human entry)).
T4 construct: Full-length, on transfected HEK293T cells
T4 chain: T1 sequence with L53I, F242L, S252A
Put plainly: flow cytometry titration on HEK293T cells transfected with cynomolgus monkey B7-H4 (293-cynoB7-H4), GEO MFI against antibody concentration.
Protocol: (§1) Following incubation, cells were pelleted, washed and incubated with a secondary labeling antibody and samples were acquired on a flow cytometer. Data was analyzed using the FlowJo software and MFI was plotted vs. antibody concentration. The EC50 cell binding potency was calculated using nonlinear regression curve fit (GraphPad Prism).

Assay [2] addresses T5, recombinant human B7-H4-huIgG1 (human).
T5 construct: the entry begins with the N-terminal leader (MASLG...), no cleavage site is stated; also called B7-H4-hulgGl; B7-H4-extracellular domain (ECD)
As to the kind of experiment: BLI and SPR.

The values that follow come from patent publication US20200255528A1 (Five Prime, published 2020).

Numbering of substitutions follows the chain as printed.

Protocol for human B7-H4 on cells: as §1
Protocol for mouse B7-H4 on cells: as §1
Protocol for rat B7-H4 on cells: as §1

B1: antibody 20506 (antibody, V domains shown)
VH: QLQLQESGPGLVKPSETLSLTCTASGGSISHGGYYWSWIRQHPGKGLEWIGNIYYSGSTYYNPSLKSRVTMSVDTSKNQFSLKLSSVTAADTAVYYCARESSTISADFDLWGRGTLVTVSS
VL: DIQMTQSPSSVSASVGDRVTITCRASQGISRWLAWYQQKPGKAPKLLIYAASSLQSGVPSRFSGSGSGTDFTLTISSLQPEDFATYYCQQAHTFPYTFGGGTKVEIKR
notes: human IgG1/kappa
B1: the “EC50 (read off the curve)” value with human B7-H4 on cells was roughly 2 nM; with mouse B7-H4 on cells it was roughly 8 nM; in assay [1], roughly 5 nM. Moreover, the binding result in the assay with rat B7-H4 on cells is on record as “binds”.

B2: antibody 15483 (antibody, human IgG1, kappa, V domains shown)
VH: QVQLQESGPGLVKPSQTLSLTCTVSGGSISSGGYYWSWIRQHPGKGLEWIGNIYYSGSTYYNPSLKSRVTISVDTSKNQFSLKLSSVTAADTAVYYCARGLSTIDEAFDPWGQGTLVTVSS
VL: not shown
notes: human IgG1/kappa
Take B2: the binding result in assay [2] was “binds”.

B3: antibody 15462 (antibody, human IgG1, kappa, V domains shown)
VH: QLQLQESGPGLVKPSETLSLTCTVSGGSISSSSYYWGWIRQPPGKGLEWIGNIYYSGSTYYNPSLKSRVTISVDTSKNQFSLKLSSVTAADTAVYYCAREGSYTTVLNVWGQGTMVTVSS
VL: EIVLTQSPGTLSLSPGERATLSCRASQSVSSSYLAWYQQKPGQAPRLLIYGASSRATGIPDRFSGSGSGTDFTLTISRLEPEDFAVYYCQQAASYPLTFGGGTKVEIKR
notes: human IgG1/kappa
Turning to B3, in assay [2], the binding result is “binds”.
